# Experimental data reported in patent US20220396632A1 (VERSEAU THERAPEUTICS, published 2022).
# T1: Biotin PSGL-1(42-62) peptide, unmodified (human, C-terminal Lys-biotin)
# T1 construct: Residues 42-62 followed by GGGK-biotin; also called WT; wild-type
# T1 peptide: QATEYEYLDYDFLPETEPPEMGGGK
# T2: Biotin Y46,48,51(SO3) PSGL-1(42-62) peptide (human, sulfotyrosine at Y46, Y48 and Y51; C-terminal Lys-biotin)
# T2 construct: also called fully sulfated N-terminal PSGL-1 peptide
# T2 peptide: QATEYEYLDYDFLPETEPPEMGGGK
# T3: Recombinant human PSGL-1(ECD)-hFc1 (R&D Systems, Cat. 3345-PS) (human, UniProt Q14242 42-305)
# T3 construct: Bought; Gln42-Val295 counted on AAC50061; also called PSGL-1-Fc; PSGL-1-hFc1 chimera; not shown: human IgG1 Fc, Pro100-Lys330
# T3 sequence: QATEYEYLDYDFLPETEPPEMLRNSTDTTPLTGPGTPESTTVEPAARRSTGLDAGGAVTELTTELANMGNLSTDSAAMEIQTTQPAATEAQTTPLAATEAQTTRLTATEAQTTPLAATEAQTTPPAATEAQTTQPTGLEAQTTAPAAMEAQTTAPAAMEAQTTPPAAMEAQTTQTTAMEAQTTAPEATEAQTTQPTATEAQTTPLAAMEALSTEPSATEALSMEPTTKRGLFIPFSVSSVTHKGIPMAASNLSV
# T4: Cynomolgus PSGL-1(ECD)-HIS (cynomolgus macaque)
# T4 construct: also called Cyno PSGL1-His
# T4 chain: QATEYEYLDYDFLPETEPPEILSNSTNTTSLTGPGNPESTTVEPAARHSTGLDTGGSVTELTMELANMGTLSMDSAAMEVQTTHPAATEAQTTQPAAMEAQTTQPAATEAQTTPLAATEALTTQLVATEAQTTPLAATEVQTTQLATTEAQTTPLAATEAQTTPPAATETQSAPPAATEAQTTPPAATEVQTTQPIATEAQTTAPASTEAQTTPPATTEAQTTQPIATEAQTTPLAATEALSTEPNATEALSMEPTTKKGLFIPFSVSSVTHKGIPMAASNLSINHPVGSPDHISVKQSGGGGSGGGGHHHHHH
# T5: Biotin sY51 PSGL-1(42-62) peptide (human, sulfotyrosine at Y51; C-terminal Lys-biotin)
# T5 construct: also called Y51(SO3) PSGL-1(42-62)
# T5 peptide: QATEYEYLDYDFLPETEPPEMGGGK
# T6: Scrambled Y46,48,51(SO3) PSGL-1(42-62) biotin peptide (sulfotyrosine at peptide positions 5, 7 and 10; C-terminal Lys-biotin)
# T6 construct: also called scrambled sulfated peptide: biotin
# T6 peptide: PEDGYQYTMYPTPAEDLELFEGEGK
# B1: 19I01 (antibody, V domains shown)
# VH: EVQLVESGGGLVKPGGSRKLSCAASGFTFSDYGMHWVRQAPEKGLEWVAYISSGSSTIYYADTVKGRFTISRDNAKNTLFLQMTSLRSEDTAMYYCARGVDGYWGQGTTLTVSS
# VL: DVVMTQTPLSLPVSLGDQASISCRSSQSLVHSNGNTYLHWYLQKPGQSPKFLIYKVSNRFSGVPDRFSGSGSGTDFTLKISRVEAEDLGVYFCSQTTHVPLTFGAGTKLELK
# notes: From mouse immunisation; only variable domains given; also called 19101
# B2: 18F02 (antibody, V domains shown)
# VH: QVQLQQPGAELVKPGASVKLSCKASGYTFTSYWMHWVKQRPGQGLEWIGMIHPNSGRTNYNEKFKSKATLTVDKSSSTAYMQLSSLTSEDSAVYYCARSDYWGQGTTLTVSS
# VL: DIVMTQAAFSNPVTLGTSASISCRSSKSLLHSDGITYLYWFLQRPGQSPQLLIYRMSNLASGVPDRFSGSGSGTDFTLRISRVEAEDVGVYYCAQMLEFPRTFGGGTKLEIK
# notes: From mouse immunisation; only variable domains given
# B3: 16L15 (antibody, V domains shown)
# VH: DVKLVESGGGLVKLGGSLKLSCAASGFTFSSYYMSWVRQTPEKRLEWVATISNGGGSTYYPDSVKDRFTISRDNAKNTLYLQMSSLNSEDTAVYYCAKPLYYSNPWFAYWGQGTLVTVSA
# VL: DVLLTQTPLSLPVSLGDQASISCRSSQSIVHSNGNTYLEWYLQKPGQSPKLLIYKVSNRFSGVPDRFSGSGSGTDFTLKISRVEAEDLGVYYCFQGSHVPRTFGGGTKLEIK
# notes: as for B2
# B4: 5E12 (antibody, V domains shown)
# VH: EIQLQQSGAELVRPGASVKLSCTASGFNIKDDYIHWVKQRPEQGLEWIGRIDPANGNTKSAPKFQDKATITADTSSNTAYLHLSSLTSEDTAVYYCSIRFAYWGQGTLVTVSA
# VL: DVVMTQTPLSLSVSLGDQASISCRSSQSLVYRNGDTYLHWFLQKPGQSPKLLIYKVSNRFSGVPDRFSGSGSGTDFTLKISRVEAEDLGIYFCSQNTHVPYTFGGGTKLEIK
# notes: Mouse hybridoma mAb; only variable domains given
# B5: 2E12 (antibody, V domains shown)
# VH: QVQLQQSGAELARPGASVKLSCKASGYTFTNYGLNWVKQRTGQGLEWIGEIYPRSGNTYYNEKFKGKATLTADKSSSTAYMQLSSLTSEDSAVYFCATEGAYWGQGTLVTVSA
# VL: DIVMTQTPLTLSVTIGQPASISCKSSQSLLHGNGKTYLNWLLQRPGQSPKLLIYLVSKLESGIPDRFSGSGSGTDFTLEISRVEAEDLGIYYCLQSTHFPRTFGGGTKLEIK
# notes: as for B4
# Biological target: T1, Biotin PSGL-1(42-62) peptide, unmodified
# Assay: ELISA, plate-bound target
row,EC50,Binder
1,0.92 nM,B1
2,0.68 nM,B2
3,0.89 nM,B3
4,0.86 nM,B4
5,1.02 nM,B5

# Biological target: T2, Biotin Y46,48,51(SO3) PSGL-1(42-62) …
# Assay: ELISA, plate-bound target
row,EC50,Binder
1,0.92 nM,B1
2,0.45 nM,B2
3,0.92 nM,B3
4,0.92 nM,B4
5,1.21 nM,B5

# Biological target: T3, Recombinant human PSGL-1(ECD)-hFc1 (R&D …)
# Assay: blocking ELISA vs L-selectin-Fc
# Outline: (§1)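 Antibodies, diluted serially in duplicate in 3% BSA, were incubated for 45 min at 37° C on wells coated with 2.5 ug/mL PSGL-1-Fc.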
% max Block,IC50,Binder
100%,5 nM,B1
100%,10 nM,B2
100%,9 nM,B3
0%,,B4
0%,,B5

# Biological target: T3, Recombinant human PSGL-1(ECD)-hFc1 (R&D …)
# Assay: blocking ELISA vs P-selectin-Fc
# Outline: as §1
% max Block,IC50,Binder
100%,4 nM,B1
100%,6 nM,B2
100%,10 nM,B3
0%,,B4
0%,,B5

# Biological target: T4, Cynomolgus PSGL-1(ECD)-HIS
# Assay: ELISA, plate cyno PSGL-1(ECD)-HIS
# Outline: (§2)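 Binding signal is TMB absorbance at 450 nm from HRP detection of IgG captured on immobilized cyno PSGL-1 extracellular domain, averaged over duplicates after background subtraction. Antibodies were tested at one concentration (20 nM) or across 0.003-200 nM, incubating 45 min at 37° C.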
row,EC50,Binder
1,0.68 nM,B1
2,0.51 nM,B2
3,0.53 nM,B3
4,0.59 nM,B4
5,0.58 nM,B5

# Biological target: T3, Recombinant human PSGL-1(ECD)-hFc1 (R&D …)
# Assay: blocking ELISA vs VISTA-Fc, pH 6.0
% max Block,IC50,Binder
100%,8 nM,B1
100%,10 nM,B2
100%,6 nM,B3
0%,,B4
0%,,B5

# Biological target: T5, Biotin sY51 PSGL-1(42-62) peptide
# Assay: ELISA, immobilized biotin peptide
# Outline: (§3)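 In this ELISA, half-well high binding plates (Corning Cat. #3690) received 3 ug/mL/25 ul per well of biotin-tagged PSGL-1 peptides covering residues 42 to 62, diluted in PBS, pH 7.4, and coated overnight at 4° C. Duplicate readings for each antibody were averaged and the average assay background was subtracted. PSGL-1 protein or peptide was the positive control.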
row,EC50,Binder
1,1.22 nM,B1
2,0.705 nM,B2
3,0.814 nM,B3
4,0.547 nM,B4
5,0.659 nM,B5

# Biological target: T6, Scrambled Y46,48,51(SO3) PSGL-1(42-62) …
# Assay: ELISA, immobilized biotin peptide
# Outline: as §3
EC50,binding result,Binder
198 nM,,B1
,no binding,B2
,no binding,B3
32.3 nM,,B4
30 nM,,B5

# Biological target: T1, Biotin PSGL-1(42-62) peptide, unmodified
# Assay: ELISA, immobilized biotin peptide
# Outline: as §3
row,EC50,Binder
1,0.844 nM,B1
2,0.702 nM,B2
3,0.695 nM,B3
4,0.539 nM,B4
5,0.694 nM,B5

# Biological target: T2, Biotin Y46,48,51(SO3) PSGL-1(42-62) …
# Assay: ELISA, immobilized biotin peptide
# Outline: as §3
row,EC50,Binder
1,0.844 nM,B1
2,0.658 nM,B2
3,0.699 nM,B3
4,0.633 nM,B4
5,0.87 nM,B5

# Biological target: T7, Cynomolgus PSGL-1(ECD)-hFc1 (cynomolgus macaque)
# T7 construct: also called Cyno PSGL1-Fc; Cyno PSGL-1(ECD)-Fc
# Assay: ELISA, 20 nM mAb on plate cyno PSGL-1(ECD)-Fc
# Outline: as §2
# T7 sequence (chain, as listed by the source limits assumed): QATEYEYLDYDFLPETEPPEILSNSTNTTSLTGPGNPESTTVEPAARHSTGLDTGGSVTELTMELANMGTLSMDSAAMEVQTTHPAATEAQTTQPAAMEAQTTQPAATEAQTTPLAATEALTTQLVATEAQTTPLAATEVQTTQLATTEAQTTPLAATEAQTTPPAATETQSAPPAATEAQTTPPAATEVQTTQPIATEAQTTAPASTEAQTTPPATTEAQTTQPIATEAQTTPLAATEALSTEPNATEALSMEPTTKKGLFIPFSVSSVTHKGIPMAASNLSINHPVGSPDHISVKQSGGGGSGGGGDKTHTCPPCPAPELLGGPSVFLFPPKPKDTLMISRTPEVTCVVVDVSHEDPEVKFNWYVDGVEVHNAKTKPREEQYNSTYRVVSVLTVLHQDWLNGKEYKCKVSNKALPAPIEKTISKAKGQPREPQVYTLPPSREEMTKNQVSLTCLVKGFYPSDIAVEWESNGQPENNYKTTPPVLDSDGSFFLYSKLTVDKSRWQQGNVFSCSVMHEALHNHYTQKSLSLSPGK
row,A450nm,Binder
1,2 A450 nm,B2
2,1.22 A450 nm,B3
